The values that follow come from paper doi:10.1101/2025.04.01.646186 (bioRxiv, 2025).

This test has as its target PSMA2 (subunit of the human 20S proteasome) (human, UniProt P25787 1-234). In words: cryo-EM structure.

Chain of PSMA2 (subunit of the human 20S proteasome) (P25787 whole entry): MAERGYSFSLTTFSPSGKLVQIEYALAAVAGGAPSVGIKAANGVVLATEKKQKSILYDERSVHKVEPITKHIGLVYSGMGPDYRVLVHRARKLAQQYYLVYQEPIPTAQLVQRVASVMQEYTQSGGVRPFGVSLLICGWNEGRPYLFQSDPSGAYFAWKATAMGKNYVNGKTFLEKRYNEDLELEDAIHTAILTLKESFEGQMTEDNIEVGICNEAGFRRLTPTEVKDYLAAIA

For H-DNDDDLYG-OH [VCP C-terminal HbYX peptide H-DNDDDLYG-OH], the binding result was “binds”.
